Test results taken from patent US9650421B2, “Self-assembled nanostructures” (NORTHWESTERN UNIVERSITY, priority 2011, dated 2017).
No end group written: not given here.

How the values were obtained:
1200 bp DNA fragment = test: Agarose gel shift assay of DNA binding; details: for peptide concentration at which no free DNA can be detected: 200 ng DNA in 20 μl; for peptide molecules for one molecule of DNA at full binding / peptides per base pair at full binding: at 20 μM peptide
Experimental: FIG. 6 depicts agarose gel electrophoresis of complexes of 2 and a 1200 bp DNA fragment. Each sample was prepared in a volume of 20 μl Well 1: 200 ng of 1200 bp DNA fragment; Well 2—10: 200 ng of 1200 bp DNA fragment+2 at a concentration of 2.5-5-7.5-10-15-20-25-35-45 μM.
The ability of compounds 1 and 2 to bind to nucleic acids was assayed by agarose gel shift assays where DNA was mixed with peptides 1 and 2 in different ratio. (FIG. 6). According to these studies at a peptide concentration of 20 μM, no free DNA can be detected in the sample. This corresponds to a ratio of approximately 1600 peptide molecules for one molecule of DNA, or 1.3 peptides per base pair.

[1] = test system: plasmid pBR322 DNA template; test: TEM of peptide-plasmid DNA complexes; type: physicochemical; details: peptide 80 μM, plasmid 200 ng in 20 μl 25 mM Tris buffer pH 7.4
Experimental: A Complex between 3 (80 μM) and plasmid pbr322 (200 ng) in 20 μl of 25 mM Tris buffer (pH 7.4, 25 mM) B Complex between 1 (80 μM) and plasmid pbr322 (200 ng) in 20 μl of 25 mM Tris buffer (pH 7.4, 25 mM) C Complex between 2 (80 μM) and plasmid pbr322 (200 ng) in 20 μl of 25 mM Tris buffer (pH 7.4, 25 mM).
(§1) Complexes between nucleic acid templates and molecules 1, 2 and 3 were prepared under conditions where no more free DNA could be detected by gel electrophoresis and analyzed by transmission electron microscopy (TEM).

[2] = test system: double strand DNA fragments; test: TEM of peptide-linear double strand DNA fragment complexes; type: physicochemical; details: for morphology of complexes with short DNA fragments: short ds DNA fragments (150, 300 bp); for morphology of complexes with DNA fragments above 300 bp: template length above 300 bp (600, 1200 bp)
Experimental: (§2) A Complex between 1 (80 μM) and ds 150 bp DNA fragment (200 ng) in 20 μl of 25 mM Tris buffer (pH 7.4, 25 mM) B Complex between 2 (80 μM) and ds 150 bp fragment (200 ng) in 20 μl of 25 mM Tris buffer (pH 7.4, 25 mM) C Complex between 1 (80 μM) and ds 300 bp DNA fragment (200 ng) in 20 μl of 25 mM Tris buffer (pH 7.4, 25 mM) D Complex between 2 (80 μM) and ds 300 bp fragment (200 ng) in 20 μl of 25 mM Tris buffer (pH 7.4, 25 mM).
as §2, with “600” for “150”, “1200” for “300”
as §1
The toroid proportion is insignificant as they are difficult to observe. Furthermore, the length of the complexes was homogenous, and around 706 nm in average. The calculated length of the PBR322 plasmid in a supercoiled conformation is 737 nm, very close to the observed dimensions. A slight shortening of the complexes can be explained by the contraction of DNA in the presence of multivalent counterions. Complexes of short double strand DNA fragments (25-1200 bp) have also been prepared and observed by TEM. (FIG. 8). The expected control of the dimensions of the complexes by template effect clearly obeys different regimes depending both of the length of the template and design of the artificial capsomers.

nucleic acid = details: physiological nucleic acid ligand; cited from earlier work
[3] = Sedimentation velocity analytical ultracentrifugation; type: physicochemical
Experimental: Sedimentation velocity experiments were conducted in the same buffer as the equilibrium experiments. Velocity experiments were performed at 50 krpm and 23° C., scans were taken at 230 nm in intensity mode. The data were analyzed with the 2-dimensional spectrum analysis (2DSA) [Brookes et al., European Biophysics Journal 39(3): 405-414 (2010)] and time invariant noise was subtracted. 2DSA results were further refined with the genetic algorithm analysis (GA) [Brookes et al., Proceedings of the 9th annual conference on Genetic and evolutionary computation 361-368 (2007)] coupled with Monte Carlo (MC) analysis [Demeler et al., UltraScan A Comprehensive Data Analysis Software Package for Analytical Ultracentrifugation Experiments. Analytical Ultracentrifugation—Techniques and Methods. Royal Society of Chemistry: 2005]. Sedimentation coefficient distributions were calculated with the van Holde-Weischet analysis [Demeler et al., Anal. Biochem. 335(2): 279-288 (2004)].
Weight-average sedimentation coefficients determined with the 2DSA-MC and the GA-MC analysis were both 2.26 s.

[4] = Circular dichroism of the peptide (alpha-helical content); type: physicochemical
Experimental: FIG. 3 depicts circular dichroism of peptide 1 at 21 μM at pH 8 in Tris buffer.
The self-assembly of molecules 1 and 2 into mushroom-shaped nanostructures by coiled-coil formation is an aspect of the disclosure. The self-assembly of the block copolymer 1 was characterized under physiological conditions to probe its propensity to generate […] coiled-coils aggregates.

[5] = Sedimentation equilibrium analytical ultracentrifugation; type: physicochemical; design: partial specific volume: unit not given here
Experimental: The coiled-coil formation was then investigated further by analytical ultracentrifugation, which gives access to the absolute molecular weight of the aggregates in solution and subsequently their aggregation number. Equilibrium experiments were conducted at 23° C. and in 50 mM phosphate buffer containing 150 mM NaCl, pH 7.4. Three loading concentrations (18, 30 and 42 μM) were scanned at 230 nm, and sedimented to equilibrium at 20 krpm, 26.6 krpm, 33.3 krpm, and at 39.9 krpm, resulting in 12 scans which were globally fit to multiple models as described previously [Johnson et al., Biophys. J. 36(3): 575-588 (1981); Demeler et al., UltraScan A Comprehensive Data Analysis Software Package for Analytical Ultracentrifugation Experiments. Analytical Ultracentrifugation—Techniques and Methods. Royal Society of Chemistry: 2005]. The most appropriate model was chosen based on visual inspection of the residual run patterns and based on the best statistics. Statistics were evaluated with the Monte Carlo analysis implemented in UltraScan [Demeler et al., Colloid & Polymer Science 286(2): 129-137 (2008)].
A good fit was obtained when all scans were fitted globally to a single ideal species model (RMSD=7.3631e-03, see FIG. 4). A fixed molecular weight distribution model with 100 molecular weight slots between 10,000 and 50,000 Dalton provided slightly better statistics (RMSD=4.6435e-03) because of the additional degrees of freedom.
This molecular weight was consistent with a hexameric assembly of 1. […] Since both sedimentation velocity and sedimentation equilibrium experiments only measure the buoyant molecular weight of the sample, errors can be introduced when the partial specific volume is in error. The partial specific volume of 1 was not determined in an independent measurement, but it is reasonable to assume that due to the presence of the PEG2000 chain, the partial specific volume is actually higher than was estimated. The partial specific volume was therefore also fitted using the single species ideal equilibrium model, holding the molecular weight fixed at the theoretical estimate of 39,921 Daltons and determined a partial specific volume of […], which is reasonable considering the presence of the PEG2000 chain.

[6] = fixed molecular weight distribution model, Monte Carlo analysis

Compound | peptide concentration at which no free DNA can be detected (1200 bp DNA fragment) [µM] | peptide molecules for one molecule of DNA at full binding (1200 bp DNA fragment) | peptides per base pair at full binding (1200 bp DNA fragment) | average length of complexes with plasmid pBR322 [1] | morphology of complexes with plasmid pBR322 [1] | morphology of complexes with short DNA fragments [2] | morphology of complexes with DNA fragments above 300 bp [2] | binding constant to nucleic acid (nucleic acid) | weight-average sedimentation coefficient ([3]; 2DSA-MC and GA-MC analysis) [s] | frictional ratio ([3]; GA-MC analysis) | molecular weight of single species (94% of the signal) ([3]; GA-MC analysis) [kDa] | weight-average sedimentation coefficient ([3]; van Holde-Weischet analysis, 50 krpm, 23° C.) [s] | alpha-helical content ([4]; before addition of DNA, 21 μM, pH 8, Tris buffer) [%] | alpha-helical content ([4]; upon addition of DNA) [%] | molecular weight of the species in solution, single ideal species fit ([5]; 23° C., 50 mM phosphate buffer, 150 mM NaCl, pH 7.4, 18, 30 and 42 μM) [kDa] | oligomeric state in solution ([5]; concentrations between 18 and 42 μM) | partial specific volume ([5]; fitted with single species ideal equilibrium model, molecular weight fixed at 39,921 Daltons) | Z-average molecular weight [5, 6] [kDa] | number-average molecular weight [5, 6] [kDa] | weight-average molecular weight [5, 6] [kDa]
2: Coiled-coil peptide (SEQ ID NO: 1) with spermine unit and mPEG5000-maleimide conjugated to an N-terminal cysteine residue ({C(mPEG5000-maleimide)}-REGVAKALRAVANALHYNASALEEVADALQKVKM; also: spermine unit, site not given here) [compound 2] | 20 | approximately 1600 | 1.3 | around 706 nm | only filamentous complexes were observed | rodlike morphology and having predominantly the length of the DNA template | homogenous rods having predominantly a length corresponding to the DNA template folded in two | – | – | – | – | – | – | – | – | – | – | – | – | –
NCCCNCCCCNCCCN [spermine] | – | – | – | – | – | – | – | micromolar range | – | – | – | – | – | – | – | – | – | – | – | –
peptide 1: Coiled-coil peptide (SEQ ID NO: 1) with C-terminal lysine-linked spermine DNA binding unit and PEG2000 carboxylic acid coupled to N-terminus ({PEG2000 carboxylic acid}-REGVAKALRAVANALHYNASALEEVADALQKVKM; not fully specified (C-terminus)) | 20 | approximately 1600 | 1.3 | – | mixture of rods, branched and toroidal complexes | rodlike morphology and having predominantly the length of the DNA template | mixture of the expected filamentous complexes of different length and toroidal complexes | – | 2.26 | 1.370 | 33.74 | 2.28 | 36 | 53 | 33.38 | hexamer or heptameric oligomer | 0.809 | 36.28 | 32.34 | 34.67
